We go through one protein from patent EP0311108A2, “Anti-HIV active 3'-azido-2,6-diaminopurine-2',3'-dideoxyriboside” (Stichting REGA V.Z.W., priority 1987, dated 1989).

Substrate in data set [1]: Nc1nc(N)c2ncn([C@@H]3O[C@H](CO)[C@@H](O)[C@@H]3O)c2n1
Nature of the data set: purified protein, by the assay type. To be noted: other: substrate of ADA.

Substrate in data set [2]: [N-]=[N+]=N[C@H]1C[C@H](n2cnc3c(N)nc(N)nc32)O[C@@H]1CO
Nature of the data set: Deamination by adenosine deaminase (substrate kinetics). To be noted: other: substrate of ADA. It is filed as biochemical, beef.

One may read the Km as the substrate concentration at which the rate is half of its maximum.

B1: beef intestine adenosine deaminase (ADA) (Bos taurus) (protein)
chain: MAQTPAFNKPKVELHVHLDGAIKPETILYYGRKRGIALPADTPEELQNIIGMDKPLSLPEFLAKFDYYMPAIAGCREAVKRIAYEFVEMKAKDGVVYVEVRYSPHLLANSKVEPIPWNQAEGDLTPDEVVSLVNQGLQEGERDFGVKVRSILCCMRHQPSWSSEVVELCKKYREQTVVAIDLAGDETIEGSSLFPGHVKAYAEAVKSGVHRTVHAGEVGSANVVKEAVDTLKTERLGHGYHTLEDATLYNRLRQENMHFEVCPWSSYLTGAWKPDTEHPVVRFKNDQVNYSLNTDDPLIFKSTLDTDYQMTKNEMGFTEEEFKRLNINAAKSSFLPEDEKKELLDLLYKAYGMPSPASAEQCL
notes: Kinetic properties of beef intestine adenosine deaminase; from tissue; host or cells: beef intestine
As for B1, in data set [1], the Km stood at 83 µM and the Vmax was 5.9 µmole/mg protein/min. For the same protein, in data set [2], the Km is recorded as 11 µM and the Vmax is listed as 40 µmole/mg protein/min.
